Data published in patent US20100092561A1 (published 2010).
Starred links: 1 amine or outer side, 2 acyl side, 3 side chain; linkers in the order of their positions; H or OH if unused. Non-standard residues stand in square brackets, D forms with d. No end group written: not given here. βMeF(S) = S-β-methyl-L-phenylalanine, (2S,3S)-β-methylphenylalanine, C[C@@H](c1ccccc1)[C@H](N[*:1])C(=O)[*:2]; Phe(3R-Me) = C[C@H](c1ccccc1)[C@H](N)C(=O)O

Target: NK1 receptor (rabbit)
Assay: cell-based or functional assay

Row | biological activity relative to SP (rabbit iris sphincter contraction) | concentration at half maximal contraction (EC50), rabbit iris sphincter muscle [nM] | Binder
1 | 10 fold reduction | 10 | RPKPQQ[Phe(3R-Me)][Phe(3R-Me)]GLM (not fully specified (C-terminus); ends and bridges not checked) [7R,8R-(βMeF)2SP]
2 | 4 fold enhancement | 0.15 | RPKPQQF[Phe(3R-Me)]GLM (not fully specified (C-terminus); ends and bridges not checked) [8R-(βMeF)SP]
3 | 10 fold reduction |  | RPKPQQF[βMeF(S)]GLM (not fully specified (C-terminus); ends and bridges not checked) [8S-(βMeF)SP]
